Kd data for one substance are collected here from doi:10.1101/2025.02.03.636288.

What is called pKd is the Kd on a negative log10 scale, so that one unit is a factor of ten. A high value points to a low Kd.

For the assay, the target named is MBP-CARD9 (human) (UniProt Q9H257). As to the kind of experiment: other fluorescence titration.

pKd: −log10 of the molar value.

Chain of MBP-CARD9 (human) (Q9H257 whole entry): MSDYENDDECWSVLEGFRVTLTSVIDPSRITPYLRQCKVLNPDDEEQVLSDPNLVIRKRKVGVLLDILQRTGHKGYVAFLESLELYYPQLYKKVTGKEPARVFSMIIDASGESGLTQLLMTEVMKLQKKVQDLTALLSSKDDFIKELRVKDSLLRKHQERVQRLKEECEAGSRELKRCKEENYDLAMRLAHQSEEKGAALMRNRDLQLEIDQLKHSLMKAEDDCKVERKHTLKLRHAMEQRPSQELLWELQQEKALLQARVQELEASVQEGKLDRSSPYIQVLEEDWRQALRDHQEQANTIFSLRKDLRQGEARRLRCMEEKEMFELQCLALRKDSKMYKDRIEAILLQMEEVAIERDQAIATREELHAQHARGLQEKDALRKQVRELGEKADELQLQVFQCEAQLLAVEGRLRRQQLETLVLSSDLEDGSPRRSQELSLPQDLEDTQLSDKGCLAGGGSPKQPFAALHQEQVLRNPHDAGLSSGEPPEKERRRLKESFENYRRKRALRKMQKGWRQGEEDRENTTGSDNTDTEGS

For the substance “CK2 complex (New England Bio, P6010L) (from UniProt P68400 1-391; P67870 1-215)”, the pKd is 6.52.
